Reference: patent US6365372 (SAINT LOUIS UNIVERSITY, dated 2002)

Key:
[1] = molecular target: T1, Gal-CBP280-460 chimera (yeast, UniProt P04386 1-147; P45481 280-460); test: cell-based or functional assay
[2] = molecular target: Gal-CBP227-460 chimera (yeast, UniProt P04386 1-147; P45481 227-460); test: cell-based or functional assay
[3] = molecular target: T1, Gal-CBP280-460 chimera; test: mammalian two-hybrid assay in HeLa cells

B1: VP16-clone 11 chimera (other)
chain: MTAPPTDVSLGDELHLDGEDVAMAHADALDDFDLDMLGDGDSPGPGFTPHDSAPYGALDMADFEFEQMFTDALGIDEYGGGTSLASASPVPAPTPVLAPSSTQTMLPAPVPSPLPSPASTQTLALAPALAPTLGGSSPSQTLSLGTGNPQGPFPTQTLSLTPASSLVPTPAQTLSLAPGPPLGPTQTLSLAPAPPLAPASPVGPAPAHTLTLAPASSSASLLAPASVQTLTLSPAPVPTLGPAAAQTLALAPASTQSPASQASSLVVSASGAAPLPVTMVSRLPVSKDEPDTLTLRSGPPSPPSTATSFGGPRPRRQPPPPPRSPFYLDSLEEKRKRQRSERLERIFQLSEAHGALAPVYGTEVLDFCTLPQPVASPIGPRSPGPSHPTFWTYTEAAHRA
With B1 the “transcription of the reporter gene pGal-CAT (relative CAT activity)” value [1] was roughly 20 fold and the “ability of the Gal-CBP227-460 chimera to activate transcription of the reporter gene pGal-CAT” value [2] was roughly 1.5 fold.

B2: VP16 activation domain (other)
chain: MTAPPTDVSLGDELHLDGEDVAMAHADALDDFDLDMLGDGDSPGPGFTPHDSAPYGALDMADFEFEQMFTDALGIDEYGG
notes: range 412-491; Control without the clone 11 part; also called pVP16
B2: no binding [3].
